Results reported in US20130203616A1.

Experiments:
[1] = molecular target: Human serum albumin (HSA) (human) (UniProt P02768); experiment: competitive indirect ELISA, antibody in buffer captured on Protein A/G plate, HRP-conjugated HSA detection
[2] = molecular target: Human serum albumin (HSA) (human) (UniProt P02768); experiment: bridging ELISA after sample preparation, plate coated with 20 µg/mL HSA, antibody in neat human serum
[3] = molecular target: Human serum albumin (HSA) (human) (UniProt P02768); experiment: bridging ELISA (HSA on plate, biotin-HSA in solution), antibody spiked in normal human serum, after Protein A/G enrichment and acid elution
[4] = molecular target: Human serum albumin (HSA) (human) (UniProt P02768); experiment: competitive indirect ELISA, antibody in neat human serum, mixed with HRP-conjugated HSA, then Protein A/G plate
[5] = molecular target: Human serum albumin (HSA) (human) (UniProt P02768); experiment: competitive indirect ELISA, antibody in 1% pooled normal human serum preincubated with HRP-conjugated HSA, then Protein A/G plate

lowest antibody concentration detected [1]: 0.48 ng/mL | limit of detection [2]: 250 ng/mL | detection limit [3]: 125 ng/mL | assay sensitivity [4]: 10 µg/mL | detection limit [5]: 3 µg/mL
Substance: Rabbit anti-HSA antibody, ABCAM ab31657
